Test: Radiochemical purity (RCP) of the Drug Substance 72 hours from end of synthesis
Assay type: physicochemical
Details: radiochemical purity 72 hours from end of synthesis; reaction time 5 min; reactor temperature 80 or 100 °C by batch
Procedure: The reaction temperature has been tested between 80° C. and 100° C. for labeling times of 5 minutes.

C[C@@H](O)[C@H](NC(=O)[C@@H]1CSSC[C@H](NC(=O)[C@@H](Cc2ccccc2)NC(=O)CN2CCN(CC(=O)[O-])CCN(CC(=O)[O-])CCN(CC(=O)[O-])CC2)C(=O)N[C@@H](Cc2ccc(O)cc2)C(=O)N[C@H](Cc2c[nH]c3ccccc23)C(=O)N[C@@H](CCCCN)C(=O)N[C@@H]([C@@H](C)O)C(=O)N1)C(=O)O.[177Lu+3] [LT141013B-03, ^177Lu-DOTA0-Tyr^3-Octreotate]
RCP (%) t72 h: 95.9%

C[C@@H](O)[C@H](NC(=O)[C@@H]1CSSC[C@H](NC(=O)[C@@H](Cc2ccccc2)NC(=O)CN2CCN(CC(=O)[O-])CCN(CC(=O)[O-])CCN(CC(=O)[O-])CC2)C(=O)N[C@@H](Cc2ccc(O)cc2)C(=O)N[C@H](Cc2c[nH]c3ccccc23)C(=O)N[C@@H](CCCCN)C(=O)N[C@@H]([C@@H](C)O)C(=O)N1)C(=O)O.[177Lu+3] [LT141013C-03, ^177Lu-DOTA0-Tyr^3-Octreotate]
RCP (%) t72 h: 95.8%

Source: patent US20200131224A1, “Methods for Synthesis of Radionuclide Complex” (Advanced Accelerator Applications (Italy) S.R.L., priority 2018, published 2020)
